Results reported in US20120023600A1 (Novartis, published 2012).

Columns and labels:
[1] = molecular target: T1, DKK1-APP (human, UniProt O94907 32-266); assay: cell-based or functional assay
T1 sequence: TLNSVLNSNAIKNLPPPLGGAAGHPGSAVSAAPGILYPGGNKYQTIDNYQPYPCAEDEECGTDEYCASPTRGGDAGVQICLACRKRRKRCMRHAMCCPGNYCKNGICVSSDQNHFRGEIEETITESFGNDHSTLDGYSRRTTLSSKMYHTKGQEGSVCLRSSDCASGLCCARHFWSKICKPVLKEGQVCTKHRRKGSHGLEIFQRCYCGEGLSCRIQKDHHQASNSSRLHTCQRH

[2] = molecular target: T2, recombinant human DKK1 (human, UniProt O94907 32-266); assay: SPR (Biacore), DKK1 immobilised on CM5 chip, Fab as analyte
T2 construct: also called Dickkopf-1; rhDKK1
T2 sequence: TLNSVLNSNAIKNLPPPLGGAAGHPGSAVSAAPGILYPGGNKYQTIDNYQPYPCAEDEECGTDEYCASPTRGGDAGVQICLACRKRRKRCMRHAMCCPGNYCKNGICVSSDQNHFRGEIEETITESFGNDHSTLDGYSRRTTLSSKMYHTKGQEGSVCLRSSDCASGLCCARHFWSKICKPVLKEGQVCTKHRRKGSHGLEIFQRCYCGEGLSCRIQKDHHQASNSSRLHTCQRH
Protocol: (§1) Using these clones, kinetic SPR analysis is performed on a. […] The Fab preparations are applied in concentration series of 16-500 nM at a flow rate of 20 μl/min. Association phase is set to 60 s and dissociation phase to 120 s.

[3] = molecular target: T3, cynomolgus DKK1 (cynomolgus monkey (Macaca fascicularis), UniProt A0A7N9IE82 32-266); assay: as above
T3 construct: also called cyno DKK1; monkey DKK1 (Novartis)
T3 sequence: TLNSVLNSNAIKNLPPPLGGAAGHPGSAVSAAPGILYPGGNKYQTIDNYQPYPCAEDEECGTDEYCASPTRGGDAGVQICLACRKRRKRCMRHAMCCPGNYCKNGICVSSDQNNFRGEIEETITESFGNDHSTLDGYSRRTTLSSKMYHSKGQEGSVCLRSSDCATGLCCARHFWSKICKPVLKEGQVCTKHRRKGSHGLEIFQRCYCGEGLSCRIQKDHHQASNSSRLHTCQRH
Protocol: as §1

[4] = molecular target: T2, recombinant human DKK1; assay: as above; remark: listed apart in the source
Protocol: as §1

[5] = molecular target: T3, cynomolgus DKK1; assay: as above; remark: listed apart in the source
Protocol: as §1

[6] = molecular target: T2, recombinant human DKK1; assay: as above; remark: listed apart in the source
Protocol: as §1

[7] = molecular target: T3, cynomolgus DKK1; assay: as above; remark: listed apart in the source
Protocol: as §1

[8] = molecular target: T4, mouse DKK1 (R&D Systems) (mouse, UniProt O54908 32-272); assay: Cross-reactivity mouse (grade in Table 4)
T4 construct: Bought protein
T4 sequence (looked up): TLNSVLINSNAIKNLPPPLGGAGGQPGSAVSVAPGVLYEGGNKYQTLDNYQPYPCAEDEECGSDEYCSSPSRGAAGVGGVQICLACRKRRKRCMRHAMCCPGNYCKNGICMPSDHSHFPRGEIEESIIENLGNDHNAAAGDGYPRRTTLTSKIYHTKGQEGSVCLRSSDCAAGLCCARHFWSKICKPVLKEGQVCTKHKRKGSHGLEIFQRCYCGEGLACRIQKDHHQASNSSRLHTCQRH

[9] = molecular target: T1, DKK1-APP; assay: cell-based or functional assay; remark: listed apart in the source
[10] = molecular target: human DKK3 (human, UniProt Q9UBP4 22-350); assay: SPR (Biacore T100); NSB = No Significant binding, not detectable above background
[11] = molecular target: T5, N-linked deglycosylated rhDKK1 (human, UniProt O94907 32-266, N-linked glycan removed with the enzyme PNGase F); assay: SPR (Biacore T100)
T5 construct: Same HIS-tagged HEK protein as WT rhDKK1 (Batch BTP7757) after PNGase F treatment; also called N-DEGLY DKK1; DKK1 (N-degly)
T5 sequence: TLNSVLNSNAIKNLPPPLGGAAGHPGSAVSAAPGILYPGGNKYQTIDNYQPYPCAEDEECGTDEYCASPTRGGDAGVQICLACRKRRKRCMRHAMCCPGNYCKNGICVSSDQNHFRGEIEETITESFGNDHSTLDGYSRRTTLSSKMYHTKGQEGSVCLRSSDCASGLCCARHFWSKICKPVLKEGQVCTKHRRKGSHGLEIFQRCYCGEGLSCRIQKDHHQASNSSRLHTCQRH

[12] = molecular target: T6, human DKK4 (human, UniProt Q9UBT3 19-224); assay: SPR (Biacore T100)
T6 construct: also called Dickkopf-4
T6 sequence: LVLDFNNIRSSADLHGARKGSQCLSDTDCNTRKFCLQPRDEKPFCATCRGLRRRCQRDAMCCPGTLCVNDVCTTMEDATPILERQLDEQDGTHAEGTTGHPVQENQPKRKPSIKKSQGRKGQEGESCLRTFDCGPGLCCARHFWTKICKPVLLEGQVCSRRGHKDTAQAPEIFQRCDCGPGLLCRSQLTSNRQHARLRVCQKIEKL

[13] = molecular target: T7, wild type (WT) rhDKK1 (HEK HIS epitope tagged Batch# BTP7757) (human, UniProt O94907 32-266, N-glycosylated (one theoretical N-linked site at amino acid 256)); assay: SPR (Biacore T100), antibody captured by anti-human IgG1 Fc, DKK in flow; average of three experiments
T7 construct: Made in HEK cells; also called WT DKK1; rhDKK1 (recombinant human DKK1) (Batch BTP7757)
T7 sequence: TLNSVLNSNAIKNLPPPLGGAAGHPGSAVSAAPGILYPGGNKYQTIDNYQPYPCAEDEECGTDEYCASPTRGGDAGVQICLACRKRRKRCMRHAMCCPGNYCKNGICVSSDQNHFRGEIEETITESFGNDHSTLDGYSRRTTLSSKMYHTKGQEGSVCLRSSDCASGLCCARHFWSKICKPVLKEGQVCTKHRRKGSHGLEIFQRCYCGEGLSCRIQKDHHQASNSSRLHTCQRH
Protocol: (§2) FIG. 6. […] Anti-Human IgG1 Fc (Jackson Immuno Research, Cat#109-006-098) is immobilized onto each flow cell, followed by capture of a lead candidate at an expected capture of about 100 RU. […] The normalized data (background subtracted) are fit to a 1:1 binding with mass transport model using Kinetics analysis in BIA evaluation 1.0 software. This experiment is carried out in triplicate, and data presented are the average of these three experiments with standard deviation.

[14] = molecular target: T6, human DKK4; assay: as above
Protocol: as §2

[15] = molecular target: T8, carboxyl terminal truncated DKK1 (deltaC, residues 1-185) with C-terminal HA epitope (Homo sapiens (Human), UniProt O94907 32-185); assay: immunoprecipitation from conditioned medium of transfected Hek293 cells, protein G beads, SDS-PAGE, anti-HA blot [panel B.]
T8 construct: Secreted into conditioned medium of transfected Hek293 cells; Contains Cys-1 but not Cys-2
T8 sequence: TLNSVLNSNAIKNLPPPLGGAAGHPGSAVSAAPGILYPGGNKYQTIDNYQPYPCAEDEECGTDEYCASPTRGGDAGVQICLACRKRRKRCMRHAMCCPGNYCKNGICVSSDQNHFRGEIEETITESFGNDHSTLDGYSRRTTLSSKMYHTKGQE
Text: Full-length (FL, containing residues 1-266), carboxyl terminal truncated (ΔC, containing residues 1-185), and amino terminal truncated (ΔN, containing residues 1-60 plus residues 157-266), are fused with an HA epitope at their C termini, and Cloned into a mammalian expression vector under the control of the cytomegalovirus (CMV) promoter. […] 1/10 of total input is loaded as control.

[16] = molecular target: T7, wild type (WT) rhDKK1 (HEK HIS epitope …); assay: SPR, Biacore T100, CM5 chip; antibody captured on immobilised anti-human IgG1 Fc, rhDKK1 0.195-6.25 nM as analyte; 1:1 binding with mass transport; mean of three experiments with standard deviation [6B]
Protocol: as §2

[17] = molecular target: T9, human DKK2 (human, UniProt Q9UBU2 34-259); assay: immunoprecipitation
T9 construct: tested by immunoprecipitation
T9 sequence: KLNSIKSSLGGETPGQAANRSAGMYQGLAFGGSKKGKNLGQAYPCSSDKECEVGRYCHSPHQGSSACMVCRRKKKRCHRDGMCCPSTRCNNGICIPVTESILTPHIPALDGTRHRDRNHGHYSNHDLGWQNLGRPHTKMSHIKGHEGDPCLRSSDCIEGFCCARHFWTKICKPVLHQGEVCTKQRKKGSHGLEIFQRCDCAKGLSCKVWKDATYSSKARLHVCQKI

[18] = molecular target: T2, recombinant human DKK1; assay: cell-based or functional assay
[19] = molecular target: T2, recombinant human DKK1; assay: cell-based or functional assay; remark: listed apart in the source
[20] = molecular target: T4, mouse DKK1 (R&D Systems); assay: cell-based or functional assay
[21] = molecular target: T3, cynomolgus DKK1; assay: cell-based or functional assay
[22] = molecular target: T10, rat DKK1 (Novartis) (rat, UniProt A6I0Z0 32-270); assay: cell-based or functional assay
T10 sequence: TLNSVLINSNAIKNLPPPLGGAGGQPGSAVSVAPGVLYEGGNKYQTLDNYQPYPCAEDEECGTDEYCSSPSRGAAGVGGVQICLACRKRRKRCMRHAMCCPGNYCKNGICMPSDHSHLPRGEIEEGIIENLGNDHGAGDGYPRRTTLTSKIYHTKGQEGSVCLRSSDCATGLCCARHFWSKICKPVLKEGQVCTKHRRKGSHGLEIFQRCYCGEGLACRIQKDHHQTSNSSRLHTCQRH

[23] = molecular target: T7, wild type (WT) rhDKK1 (HEK HIS epitope …); assay: SPR (Biacore T100)
[24] = molecular target: T5, N-linked deglycosylated rhDKK1; assay: SPR (Biacore T100); remark: listed apart in the source
[25] = molecular target: T2, recombinant human DKK1; assay: solution equilibrium titration (SET), ECL (BioVeris), IgG
Text: (§3) Electrochemiluminescence (ECL) based affinity determination in solution and data evaluation are basically performed as described by [Haenel et al., 2005], the binding fit model is applied as modified according to [Piehler et al., 1997]). […] Biotinylated human. […] Subsequently, the concentration of unbound. IgG is quantified via ECL detection using the M-384 SERIES® analyzer (BioVeris, Europe).

[26] = molecular target: T4, mouse DKK1 (R&D Systems); assay: as above
Text: as §3

[27] = molecular target: T3, cynomolgus DKK1; assay: as above
Text: as §3

[28] = molecular target: T10, rat DKK1 (Novartis); assay: as above
Text: as §3

Chain of human DKK3 (Q9UBP4 other isoform, or with tags, fused parts or gaps limits assumed): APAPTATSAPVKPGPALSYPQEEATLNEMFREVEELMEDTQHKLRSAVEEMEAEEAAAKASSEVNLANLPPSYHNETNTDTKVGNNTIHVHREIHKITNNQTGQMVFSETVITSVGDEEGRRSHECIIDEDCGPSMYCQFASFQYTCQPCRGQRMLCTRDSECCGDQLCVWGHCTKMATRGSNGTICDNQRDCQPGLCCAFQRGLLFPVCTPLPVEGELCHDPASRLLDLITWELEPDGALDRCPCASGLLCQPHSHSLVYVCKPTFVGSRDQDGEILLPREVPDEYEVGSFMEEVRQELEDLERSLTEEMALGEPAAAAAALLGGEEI

B1: MOR04455 (Fab, V domains shown)
VH: QVQLVESGGGLVQPGGSLRLSCAASGFTFSSYGMSWVRQAPGKGLEWVSGISGSGSYTYYADSVKGRFTISRDNSKNTLYLQMNSLRAEDTAVYYCARHYMDHWGQGTLVTVSS
VL: DIQMTQSPSSLSASVGDRVTITCRASQDISNYLHWYQQKPGKAPKLLIYGASNLQSGVPSRFSGSGSGTDFTLTISSLQPEDFAVYYCQQYDSIPMTFGQGTKVEIKR
notes: Fab with C-terminal FLAG and 6xHis tags
[1]
  Luciferase reporter assay; EC50: 39000 pM
[2]
  Kd: 1600 pM
[3]
  Kd: 1500 pM
[4]
  Kd: 1600 pM
[5]
  Kd: 1500 pM
[6]
  Kd: 1600 pM
[7]
  Kd: 1500 pM
[8]
  binding result: binds
[9]
  EC50: 39000 pM

B2: anti-DKK1/4 antibody (antibody, V domains shown)
VH: QVQLVESGGGLVQPGGSLRLSCAASGFTFSSYWMSWVRQAPGKGLEWVSGISYSGSNTHYADSVKGRFTISRDNSKNTLYLQMNSLRAEDTAVYYCARMGIDLDYWGQGTLVTVSS
VL: DIALTQPASVSGSPGQSITISCTGTSSDVGGFNYVSWYQQHPGKAPKLMIHDGSNRPSGVSNRFSGSKSGNTASLTISGLQAEDEADYYCQSWDVSPITAVFGGGTKLTVLG
notes: also called neutralizing anti-DKK1/4 antibody; NVP-anti-DKK1/4 antibody-NX
[10]
  binding result: no binding
[11]
  fold lower affinity than for WT DKK1: 100 fold
[12]
  fold lower affinity than for DKK1: ~100 fold
[13]
  Kd: 2 pM
[14]
  Kd: 297 pM
[15]
  binding result: no binding
[16]
  koff: 9e-06 s⁻¹
  kon: 4.6e+06 M⁻¹ s⁻¹
[17]
  binding result: no binding
[18]
  apparent EC50, TCF/LEF luciferase reporter (SuperTopflash, Kremen) assay: 160 pM
[19]
  Reactivation of wnt3a signaling (TOPFlash) EC50 (pM): 80.6 pM
[20]
  Reactivation of wnt3a signaling (TOPFlash) EC50 (pM): 60.5 pM
[21]
  Reactivation of wnt3a signaling (TOPFlash) EC50 (pM): 54.2 pM
[22]
  Reactivation of wnt3a signaling (TOPFlash) EC50 (pM): 255 pM
[23]
  Kd: 3.11 pM
  koff: 2.32e-05 s⁻¹
  kon: 7.45e+06 M⁻¹ s⁻¹
[24]
  Kd: 216 pM
  koff: 0.000307 s⁻¹
  kon: 1.42e+06 M⁻¹ s⁻¹

B3: MOR4910 IgG (antibody, V domains shown)
VH: QVQLVESGGGLVQPGGSLRLSCAASGFTFSSYWMSWVRQAPGKGLEWVSGISYSGSNTHYADSVKGRFTISRDNSKNTLYLQMNSLRAEDTAVYYCARMGIDLDYWGQGTLVTVSS
VL: DIALTQPASVSGSPGQSITISCTGTSSDVGGFNYVSWYQQHPGKAPKLMIHDGSNRPSGVSNRFSGSKSGNTASLTISGLQAEDEADYYCQSWDVSPITAVFGGGTKLTVLG
notes: also called MOR04910 IgG
[25]
  Kd: 17 pM
[26]
  Kd: 10 pM
[27]
  Kd: 7 pM
[28]
  Kd: 16 pM
